Laboratory results as given in patent US20120316071A1 (published 2012).

Legend:
[1] = biological target: T1, rHuman HGF R/c-MET/Fc Chimera, CF (R&D Systems Cat#358-MT/CF) (human, UniProt P08581 25-932); test: MSD Multispot ECL, antigen spotted on plate, Fab 130 nM; blank spot 1153
T1 construct: Bought reagent; also called HGF R/Fc; hepatocyte growth factor receptor; Fc part of the bought chimera not given

[2] = biological target: T2, rHuman ErbB2/Fc Chimera, CF (R&D Systems Cat#1129-ER) (human, UniProt P04626 23-652); test: as above
T2 construct: Bought reagent; also called human epidermal growth factor 2 receptor; Fc part of the bought chimera not given

[3] = biological target: T3, rHuman Erythropoietin R/Fc Chimera, CF (R&D Systems Cat#963-ER) (human, UniProt P19235 25-250); test: as above
T3 construct: Bought reagent; also called EPO R/Fc; EPO R; Fc part of the bought chimera not given
T3 sequence (looked up): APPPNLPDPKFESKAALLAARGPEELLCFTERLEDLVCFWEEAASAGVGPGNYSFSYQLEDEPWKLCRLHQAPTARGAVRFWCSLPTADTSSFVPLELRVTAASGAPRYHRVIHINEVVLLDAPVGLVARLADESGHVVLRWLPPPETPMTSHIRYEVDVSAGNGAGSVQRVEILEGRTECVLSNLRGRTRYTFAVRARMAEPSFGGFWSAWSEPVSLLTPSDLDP

[4] = biological target: T4, rHuman EGF R/Fc Chimera, CF (R&D Systems Cat#344-ER) (human, UniProt P00533 25-645); test: as above
T4 construct: Bought reagent; also called epidermal growth factor receptor; Fc part of the bought chimera not given

[5] = biological target: T5, rHuman CD44/Fc Chimera, CF (R&D Systems Cat#3660-CD) (human, UniProt P16070 21-220); test: as above
T5 construct: Bought reagent; Fc part of the bought chimera not given

[6] = biological target: T6, rHuman IGF-1 sR, (IGF-1 sR), CF (R&D Systems Cat#391-GR) (human, UniProt P08069 31-932); test: as above
T6 construct: Bought soluble receptor; also called insulin-like growth factor-1 soluble receptor

[7] = biological target: T7, Recombinant Human DLL4 (R&D Systems Cat#1506-D4/CF) (human, UniProt Q9NR61 27-529); test: as above
T7 construct: Bought recombinant protein; also called rHuman DLL4; delta-like protein 4

[8] = biological target: T8, rHuman Notch-1/Fc Chimera, CF (R&D Systems Cat#3647-TK) (human, UniProt P46531 19-526); test: as above
T8 construct: Bought reagent; Fc part of the bought chimera not given

[9] = biological target: T9, rHuman Notch-1/Fc Chimera, CF (R&D Systems Cat#3647-TK) (human, UniProt P46531 19-526); test: MSD multispot ECL, antigen spotted, Fab 148.9 nM; blank spot 218
T9 construct: Bought reagent

[10] = biological target: T10, Recombinant Human DLL4 (R&D Systems Cat#1506-D4/CF) (human, UniProt Q9NR61 27-524); test: as above
T10 construct: Bought recombinant protein; also called rHuman DLL4; delta-like protein 4

[11] = biological target: T11, rHuman Erythropoietin R/Fc Chimera, CF (R&D Systems Cat#963-ER) (human, UniProt P19235 25-250); test: Multispot ECL (MSD) titration; antigen spotted on plate; Fab 392.5 nM; blank spot 338
T11 construct: Bought Fc chimera; also called EPO R/Fc; EPO R; Fc part of the bought chimera not given
T11 sequence (looked up): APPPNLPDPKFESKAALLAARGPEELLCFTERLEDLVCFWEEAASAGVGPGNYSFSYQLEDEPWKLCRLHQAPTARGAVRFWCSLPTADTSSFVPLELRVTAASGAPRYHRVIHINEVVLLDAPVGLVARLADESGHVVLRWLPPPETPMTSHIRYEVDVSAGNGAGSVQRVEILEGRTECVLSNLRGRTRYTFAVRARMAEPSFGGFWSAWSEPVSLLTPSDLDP

[12] = biological target: T12, rHuman HGF R/c-MET/Fc Chimera, CF (R&D Systems Cat#358-MT/CF) (human, UniProt P08581 25-932); test: as above
T12 construct: Bought Fc chimera; also called HGF R/Fc; hepatocyte growth factor receptor; Fc part of the bought chimera not given

[13] = biological target: T13, rHuman P-Cadherin/Fc Chimera, CF (R&D Systems Cat#861-PC) (human, UniProt P22223 108-654); test: as above
T13 construct: Bought Fc chimera; Fc part of the bought chimera not given

[14] = biological target: T14, rHuman Notch-1/Fc Chimera, CF (R&D Systems Cat#3647-TK) (human, UniProt P46531 19-526); test: as above
T14 construct: Bought Fc chimera; Fc part of the bought chimera not given

[15] = biological target: T15, rHuman IGF-1 sR (IGF-1 sR), CF (R&D Systems Cat#391-GR) (human, UniProt P08069 31-932); test: as above
T15 construct: Bought soluble receptor; also called insulin-like growth factor-1 soluble receptor

[16] = biological target: T16, rHuman ErbB2/Fc Chimera, CF (R&D Systems Cat#1129-ER) (human, UniProt P04626 23-652); test: as above
T16 construct: Bought Fc chimera; also called human epidermal growth factor 2 receptor; Fc part of the bought chimera not given

[17] = biological target: T17, Recombinant Human DLL4 (R&D Systems Cat#1506-D4/CF) (human, UniProt Q9NR61 27-524); test: as above
T17 construct: Bought recombinant protein; also called delta-like protein 4; rHuman DLL4

[18] = biological target: T18, rHuman CD44/Fc Chimera, CF (R&D Systems Cat#3660-CD) (human, UniProt P16070 21-220); test: as above
T18 construct: Bought Fc chimera; Fc part of the bought chimera not given

B1: Fab VH1-8_IGHD2-2*01_IGHJ6*01 & L12_IGKJ1*01 (Fab, V domains shown)
VH: QVQLVQSGAEVKKPGASVKVSCKASGYTFTSYDINWVRQATGQGLEWMGWMNPNSGNTGYAQKFQGRVTMTRNTSISTAYMELSSLRSEDTAVYYCARGGYCSSTSCYADYYYYYGMDVWGQGTTVTVSS
VL: not shown
For B1, which ECL signal [1] is on record?
Its ECL signal is 1880.

And the ECL signal [2]?
Its ECL signal is 1530.

What about the ECL signal [3] of the same binder?
Its ECL signal is 2150.

What about the ECL signal [4] of the same binder?
The ECL signal was 1750.

What about the ECL signal [5] of the same binder?
The ECL signal was 1750.

And the ECL signal [6]?
Its ECL signal is 1970.

And the ECL signal [7]?
Its ECL signal is 7740.

What about the ECL signal [8] of the same binder?
Its ECL signal is 1760.

B2: Fab VH1-46_IGHD6-6*01_IGHJ1*01 & L6_IGKJ1*01 (Fab, V domains shown)
VH: QVQLVQSGAEVKKPGASVKVSCKASGYTFTSYYMHWVRQAPGQGLEWMGIINPSGGSTSYAQKFQGRVTMTRDTSTSTVYMELSSLRSEDTAVYYCAREEYSSSSAEYFQHWGQGTLVTVSS
VL: not shown
notes: Only variable domains are tied to the molecule; Tested as a Fab made in E. coli: heavy chain from Plasmid A (CH1 constant region, His6 and Flag tags), kappa light chain from Plasmid C (kappa CL); also called parent Hit Fab against DLL4; VH1-46_IGHD6-6*01_IGHJ1*01 & L6_IGKJ1*01 (parental)
B2 was tested. Which ECL signal [9] did it give?
Its ECL signal is 375 ECL signal.

What about the ECL signal [10] of the same binder?
The ECL signal was 16300 ECL signal.

B3: Fab VH1-46_IGHD3-10*01_IGHJ4*01 & O1_IGKJ1*01 (Fab, V domains shown)
VH: QVQLVQSGAEVKKPGASVKVSCKASGYTFTSYYMHWVRQAPGQGLEWMGIINPSGGSTSYAQKFQGRVTMTRDTSTSTVYMELSSLRSEDTAVYYCAREYYYGSGSYYNDYFDYWGQGTLVTVSS
VL: DIVMTQTPLSLPVTPGEPASISCRSSQSLLDSDDGNTYLDWYLQKPGQSPQLLIYTLSYRASGVPDRFSGSGSGTDFTLKISRVEAEDVGVYYCMQRIEFPSWTFGQGTKVEIKR
notes: Germline library Fab expressed in E. coli; VH was cloned into Plasmid A (CH1 constant region, His6 and Flag tags); The kappa VL was cloned into Plasmid C (kappa CL)
B3 was tested. Which ECL signal [11] did it give?
Its ECL signal is 5860.

What about the ECL signal [12] of the same binder?
The ECL signal was 581.

What about the ECL signal [13] of the same binder?
Its ECL signal is 459.

What about the ECL signal [14] of the same binder?
Its ECL signal is 749.

And the ECL signal [15]?
Its ECL signal is 466.

And the ECL signal [16]?
Its ECL signal is 539.

What about the ECL signal [17] of the same binder?
The ECL signal was 735.

And the ECL signal [18]?
The ECL signal was 498.
